Counter-ions that a name gives are not always drawn.

Data set [1] can be described thus: Pharmacokinetics after s.c. administration in rat (plasma concentration by anti-Xa activity). The format is in vivo, male Wistar rats. Conditions: male, Wistar, sc, 500 nmol/kg. The protocol: The pharmacokinetic properties of compound 3 were studied in male Wistar rats of 300-400 gr. The rats were anaesthetized by inhalation of a mixture of O2/N2O/isoflurane, after which the right jugular vein was cannulated. The next day rats were treated s.c. with doses of 100 or 500 nmol/kg. After s.c. administration, blood was sampled at several time intervals. Then the blood was centrifuged after which the plasma was siphoned off and stored at −20° C. until use. The concentration of the tested compound was measured amidolytically with S2222 (Chromogenix, Chromogenics Ltd, Molndal, Sweden) by determination of the anti-Xa activity based on the method of Teien and Lie in the obtained plasma samples against a calibration curve which was made of the stock solution of the tested compound itself. (Teien A N, Lie M. Evaluation of an amidolytic heparin assay method increased sensitivity by adding purified antithrombin III. Thromb. Res. 1977, 10: 399-410). The concentration in the samples was expressed in nmol/mL and the kinetic parameters were calculated with the noncompartment model of WinNonlin.

Data set [2] deals with human platelet aggregation induced by ADP. The data set is described as follows: In vitro test for inhibition of human platelet aggregation induced by ADP (platelet rich plasma). The format is cell-based. Conditions: read-out: IC50, inhibition of human platelet aggregation induced by 5 μM ADP. The protocol:
• 1. Sysmex blood cell counter model KX-21. • 2. […] Absorption is measured with the Labsystems iEMS program. • 3. Blood collection system 600 mL with needle, art P4203 (NPBI). • 4.
The optical density (OD620) is then measured at 620 nm. […] This is to verify the stability of the platelets (absence of spontaneous platelet aggregation). […] Between two measurements, the plate is shaking for 40 seconds at 1,000 rpm. Each test compound is investigated in at least 2 experiments using PRP from different volunteers.
The mean OD at each compound concentration (including vehicle) is calculated at t=0 min and t=10 min. The percentage inhibition at each concentration is calculated using the formula: […]

Data set [3] relates to human platelet aggregation induced by TRAP. The data set is described as follows: In vitro test for inhibition of human platelet aggregation induced by TRAP (washed platelets). The format is cell-based. Conditions: read-out: IC50, inhibition of human platelet aggregation induced by 5 μM TRAP. The protocol: This aggregation can be determined by measuring the optical density of the WPL. The in vitro test described here is used to analyze the activity of a test compound to inhibit TRAP-induced aggregation of human platelets. […] Between two measurements, the plate is shaking for 40 seconds at 1,000 rpm.

On to `CO[C@H]1O[C@H](COS(=O)(=O)O)[C@@H](O[C@@H]2O[C@@H](C(=O)O)[C@@H](O[C@H]3O[C@H](COS(=O)(=O)O)[C@@H](O[C@@H]4O[C@H](C(=O)O)[C@@H](O[C@H]5O[C@H](COS(=O)(=O)O)[C@@H](OCCOCCOCCOCCNC(=O)COCCOCCOCCOCCNC(=O)c6cccc(S(=O)(=O)N[C@@H](Cc7ccc(OCCCCC8CCNCC8)cc7)C(=O)O)c6)[C@H](OC)[C@H]5OC)[C@H](OC)[C@H]4OC)[C@H](OS(=O)(=O)O)[C@H]3OS(=O)(=O)O)[C@H](OC)[C@H]2OC)[C@H](OS(=O)(=O)O)[C@H]1OS(=O)(=O)O` [Compound 3, sodium salt], for which the Tmax in data set [1] (n = 3) stood at 2.5 h. In data set [1] (n = 3, mean ± s.e.m.), this compound showed a total exposure AUC(0-inf) of 75.3 ± 3.2 µM·h and a Cmax of 5 ± 0.4 µM. The half-life in data set [1] (n = 3, mean ± s.e.m., read-out: T½ eli (converted)) is 9.3 ± 0.2 h.

As for `CCCCS(=O)(=O)N[C@@H](Cc1ccc(OCCCCC2CCNCC2)cc1)C(=O)O` [tirofiban], the IC50 in data set [2] and in data set [3] was 30 to 60 nM each time.

The values are drawn from patent publication US20090111769A1, “Antithrombotic Compound” (priority 2005, published 2009).
